We go through one molecule from patent US20200095589, “ENGINEERED DCAS9 WITH REDUCED TOXICITY AND ITS USE IN GENETIC CIRCUITS” (Massachusetts Institute of Technology, published 2020).

The target in the data set is dCas9*_HNH-L88 (ZFP fusion) (Streptococcus pyogenes / synthetic). As to the kind of experiment: cell_activity; E. coli; maximum reached at optimal 6 bp spacer; about a third of unmodified dCas9. The note with it: dCas9(R1335K), HNH deleted, 88 aa linker, C-terminal Zif268TS3. How it is done:
A reporter system was developed to evaluate the impact of these modifications on the ability for dCas9 to repress the targeted promoter (FIGS. 13A-13F). The expression of the sgRNA and dCas9 are controlled using IPTG- and aTc-inducible promoters, respectively. All of these components are integrated into a single p15A plasmid backbone. The fold-repression is measured as the fluorescence from the output promoter in the absence of sgRNA inducer (0 mM IPTG), divided by the fluorescence when the sgRNA is expressed (1 mM IPTG). When the R1335K mutation is made (dCas9*), this completely abolishes repression as expected (FIG. 1C).
The ability for a zinc finger protein (ZFP) to recover nuclease activity was first tested. To this end, a variant of dCas9* described previously was built, where Zif268^TS3 is fused to the C-terminal end of dCas9* via a 58 amino acid linker (Bolukbasi M. F., et al., Nat. Methods, 2015 December; 12(12): 1150-56). The corresponding 12 bp operator recognized by Zif268^Ts3 was then placed upstream of the promoter, separated from the −35 position by a spacer (all promoter variants described are provided in TABLE 3). The orientation of the operator (forward and reverse) was initially tested with the forward yielding higher repression as previously observed (Bolukbasi M. F., et al., Nat. Methods, 2015 December; 12(12): 1150-56). […]

B1: sgRNA9 ; pZFP_S6 promoter (ssRNA ; dsDNA)
RNA: AUAAUACCCGUGUGACCCGUGUUUUAGAGCUAGAAAUAGCAAGUUAAAAUAAGGCUAGUCCGUUAUCAACUUGAAAAAGUGGCACCGAGUCGGUGCUUUUUUU
DNA 1: TCCGAATGACATGCGTCTCCGGTGTTGGAGCGACAGCCTTTACACCAACGGGTCACACGGGTATTATGCTAGC
DNA 2: GCTAGCATAATACCCGTGTGACCCGTTGGTGTAAAGGCTGTCGCTCCAACACCGGAGACGCATGTCATTCGGA
As to B1, the activity amounted to 28 fold repression.
